The experiment has as its target T1, phosphatidylinositol 4-phosphate 5-kinase type-1 gamma (PIP5K1C) (human, UniProt O60331 1-668).
T1 construct: PIP5K1C, human; also called PIPK1 gamma 90; source: Sf9, baculovirus, purified (amylose resin, HRV-3C cleavage, SEC); not shown: His6, N-terminal, cleaved; MBP, N-terminal, cleaved
Description: pull-down; purified GST, GST-Arf6-T27N or GST-Arf6-Q67L bound to GSH agarose as bait; purified PIP5K1C 400 nM as prey, 1 h at 4 °C; 20 mM HEPES, 250 mM NaCl, 0.5 mM TCEP; SDS-PAGE and Coomassie staining. Particulars: both partners purified.

The record followed here is PMC9382030 (Current biology : CB, 2022).

T1 sequence (O60331 whole entry): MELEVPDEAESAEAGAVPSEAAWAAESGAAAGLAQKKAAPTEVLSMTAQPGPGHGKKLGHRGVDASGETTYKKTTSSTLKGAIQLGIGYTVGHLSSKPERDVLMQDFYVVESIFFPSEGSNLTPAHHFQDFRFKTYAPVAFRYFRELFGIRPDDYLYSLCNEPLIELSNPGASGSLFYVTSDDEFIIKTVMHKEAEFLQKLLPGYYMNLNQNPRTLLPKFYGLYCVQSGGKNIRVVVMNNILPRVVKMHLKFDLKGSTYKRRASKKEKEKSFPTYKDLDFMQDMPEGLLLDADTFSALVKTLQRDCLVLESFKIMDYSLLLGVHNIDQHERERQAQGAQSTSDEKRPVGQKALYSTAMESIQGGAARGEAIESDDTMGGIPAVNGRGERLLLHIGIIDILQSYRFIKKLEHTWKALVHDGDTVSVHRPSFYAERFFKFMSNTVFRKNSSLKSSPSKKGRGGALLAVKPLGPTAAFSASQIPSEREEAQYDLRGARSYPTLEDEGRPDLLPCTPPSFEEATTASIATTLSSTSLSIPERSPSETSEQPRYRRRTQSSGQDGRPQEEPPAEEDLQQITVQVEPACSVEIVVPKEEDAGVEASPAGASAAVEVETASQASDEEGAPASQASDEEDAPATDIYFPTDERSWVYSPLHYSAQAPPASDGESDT

B1: GST-Arf6-Q67L (natural protein, human, UniProt P62330 1-175, looked up)
chain: MGKVLSKIFGNKEMRILMLGLDAAGKTTILYKLKLGQSVTTIPTVGFNVETVTYKNVKFNVWDVGGLDKIRPLWRHYYTGTQGLIFVVDCADRDRIDEARQELHRIINDREMRDAIILIFANKQDLPDAMKPHEIQEKLGLTRIRDRNWYVQPSCATSGDGLYEGLTWLTSNYKS
notes: Arf6, human; pGEX-6P-1 Arf6-Q67L; In the phosphoinositide conversion assay an N-terminal 6xHis form (pOCC3) was used instead; also called constitutively active Arf6; source: E. coli BL21, purified (GSH agarose, SEC); not shown: GST, N-terminal, kept
With B1, the binding result is reported as “binds”.
